The target of the assay is T1, recombinant human TIGIT (human, UniProt Q495A1 22-141, limits assumed).
T1 construct: recombinant human TIGIT used in Carterra SPR; also called hTIGIT
T1 sequence (looked up): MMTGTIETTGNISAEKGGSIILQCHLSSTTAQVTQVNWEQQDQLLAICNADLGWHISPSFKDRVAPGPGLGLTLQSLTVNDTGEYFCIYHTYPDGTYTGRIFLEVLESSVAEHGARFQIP
The assay is described as follows: SPR Carterra, average. The protocol: Binding affinities of VHH-Fc proteins to recombinant human TIGIT were measured by SPR using a Carterra instrument (Table 10A). […] Average values reported from measurements from 1-2 samples.

One may read the Kd as the equilibrium constant for the complex coming apart. A word on the koff: it is a measure of how fast the partners let go of each other. As usually defined, the kon is the rate constant with which the complex forms.

B1: TIGIT-SC106 (Fc fusion)
VHH: EVQLVESGGGLVQPGGSLRLSCAASGFPFDDYAMGWFRQAPGKERELVAVIRWTGMSTHYADSVKGRFTISADNSKNTAYLQMNSLKPEDTAVYYCAKGIAVAGAFDYWGQGTLVTVSS
notes: VHH-Fc fusion in assay
For B1, the Kd was found to be 7.99 nM, the dissociation rate constant (koff) stood at 0.000753 s⁻¹ and the kon was found to be 95500 M⁻¹ s⁻¹.

B2: TIGIT-SC74 (Fc fusion)
VHH: EVQLVESGGGLVQPGGSLRLSCAASGRTFANNAMGWFRQAPGKEREFVAAINWSGGNTYYADSVKGRFTISADNSKNTAYLQMNSLKPEDTAVYYCAKWSYYGSGLYGMDVWGQGTLVTVSS
notes: VHH-Fc fusion in assay
B2: the Kd stood at 18 nM, the dissociation rate constant (koff) stood at 0.00329 s⁻¹ and the kon was 183000 M⁻¹ s⁻¹.

B3: TIGIT-SC83 (Fc fusion)
VHH: EVQLVESGGGLVQPGGSLRLSCAASGRTFSDDAMGWFRQAPGKEREFVAAISRSGGNTYYADSVKGRFTISADNSKNTAYLQMNSLKPEDTAVYYCAKWFYYGSGLYTLDVWGQGTLVTVSS
notes: VHH-Fc fusion in assay
Regarding B3, the equilibrium dissociation constant (Kd) was found to be 29.1 nM, the koff stood at 0.00378 s⁻¹ and the kon stood at 132000 M⁻¹ s⁻¹.

B4: TIGIT-SC82 (Fc fusion)
VHH: EVQLVESGGGLVQPGGSLRLSCAASGSMSSNYAMGWFRQAPGKEREFVAAIDWSGGNTYYADSVKGRFTISADNSKNTAYLQMNSLKPEDTAVYYCAKWFYYGSGLYTLDVWGQGTLVTVSS
notes: VHH-Fc fusion in assay
For the molecule B4, the Kd came out at 57 nM, the koff was 0.00324 s⁻¹ and the kon came to 56700 M⁻¹ s⁻¹.

B5: TIGIT-SC75 (Fc fusion)
VHH: EVQLVESGGGLVQPGGSLRLSCAASGFIGNYHAMGWFRQAPGKEREFVAAIRWSDGSSYYADSVKGRFTISADNSKNTAYLQMNSLKPEDTAVYYCAKWSYYGSGLYGMDVWGQGTLVTVSS
notes: VHH-Fc fusion in assay
With B5, the equilibrium dissociation constant (Kd) was 7.44 nM, the koff was determined as 0.000376 s⁻¹ and the kon was found to be 50500 M⁻¹ s⁻¹.

B6: TIGIT-SC86 (Fc fusion)
VHH: EVQLVESGGGLVQPGGSLRLSCAASGIIASDSAMGWFRQAPGKEREFVAAIRWSGKETWYADSVKGRFTISADNSKNTAYLQMNSLKPEDTAVYYCARWGGVTFGGVYPLEYWGQGTLVTVSS
notes: VHH-Fc fusion in assay
Consider B6, for which the dissociation constant (Kd) is 7.14 nM, the koff is 0.00212 s⁻¹ and the kon came to 341000 M⁻¹ s⁻¹.

B7: TIGIT-SC103 (Fc fusion)
VHH: EVQLVESGGGLVQPGGSLRLSCAASGTITSAVFMGWFRQAPGKEREFVAAISWSGGDTNYADSVKGRFTISADNSKNTAYLQMNSLKPEDTAVYYCARWGGITFGGVYPLDYWGQGTLVTVSS
notes: VHH-Fc fusion in assay
Turning to B7, the Kd amounted to 34.3 nM, the koff came out at 0.00498 s⁻¹ and the kon was 145000 M⁻¹ s⁻¹.

B8: TIGIT-SC88 (Fc fusion)
VHH: EVQLVESGGGLVQPGGSLRLSCAASGFTFSSDWMGWFRQAPGKEREFVAAINRSGHSTSYADSVKGRFTISADNSKNTAYLQMNSLKPEDTAVYYCARWGGVTFGGVYPLEYWGQGTLVTVSS
notes: VHH-Fc fusion in assay
For the molecule B8, the dissociation constant Kd is 22 nM, the koff is 0.00204 s⁻¹ and the kon amounted to 92500 M⁻¹ s⁻¹.

B9: TIGIT-SC33 (Fc fusion)
VHH: EVQLVESGGGLVQPGGSLRLSCAASGFLFDSYAMGWFRQAPGKEREFVAAVSQSGLLTFYADSVKGRFTISADNSKNTAYLQMNSLKPEDTAVYYCASRTSSWWWFDPWGQGTLVTVSS
notes: VHH-Fc fusion in assay
For the molecule B9, the Kd amounted to 6.72 nM, the koff was found to be 0.00107 s⁻¹ and the on-rate constant (kon) amounted to 182000 M⁻¹ s⁻¹.

B10: TIGIT-SC76 (Fc fusion)
VHH: EVQLVESGGGLVQPGGSLRLSCAASGFTFSDYAMGWFRQAPGKERELVARIGHDGSTDYADSVKGRFTISADNSKNTAYLQMNSLKPEDTAVYYCLGGLDPWGQGTLVTVSS
notes: VHH-Fc fusion in assay
Turning to B10, the dissociation constant Kd was 7.64 nM, the off-rate constant (koff) came out at 0.00717 s⁻¹ and the kon was 938000 M⁻¹ s⁻¹.
